Laboratory results published in paper PMC4776307, “The Escherichia coli Cryptic Prophage Protein YfdR Binds to DnaA and Initiation of Chromosomal Replication Is Inhibited by Overexpression of the Gene Cluster yfdQ-yfdR-yfdS-yfdT” (Frontiers in Microbiology, 2016).

B2: DnaA (native, wild-type) (natural protein, Escherichia coli, UniProt P03004 1-467, looked up)
chain: MSLSLWQQCLARLQDELPATEFSMWIRPLQAELSDNTLALYAPNRFVLDWVRDKYLNNINGLLTSFCGADAPQLRFEVGTKPVTQTPQAAVTSNVAAPAQVAQTQPQRAAPSTRSGWDNVPAPAEPTYRSNVNVKHTFDNFVEGKSNQLARAAARQVADNPGGAYNPLFLYGGTGLGKTHLLHAVGNGIMARKPNAKVVYMHSERFVQDMVKALQNNAIEEFKRYYRSVDALLIDDIQFFANKERSQEEFFHTFNALLEGNQQIILTSDRYPKEINGVEDRLKSRFGWGLTVAIEPPELETRVAILMKKADENDIRLPGEVAFFIAKRLRSNVRELEGALNRVIANANFTGRAITIDFVREALRDLLALQEKLVTIDNIQKTVAEYYKIKVADLLSKRRSRSVARPRQMAMALAKELTNHSLPEIGDAFGGRDHTTVLHACRKIEQLREESHDIKEDFSNLIRTLSS
notes: DnaA, chromosomal replication initiator of Escherichia coli; called native, intact, wild-type DnaA; Untagged; In the bio-oriC pull-downs it stood as DnaA complexes (multimers) formed on a biotin-tagged oriC DNA fragment; also called native DnaA; wild-type DnaA (WT); source: purified

How the values were obtained:
Conditions in all cases: both partners purified
[1] = target: B2; assay: pull-down; His-YfdR (10 pmol) with native DnaA or DnaA F46A in buffer R with 20 mM imidazole (20 uL; 2 mM ATP), on ice; Co2+ magnetic beads (Dynabeads); wash with 100 mM KCl and 50 mM imidazole; SDS-13% PAGE, silver staining; bead-bound DnaA subtracted
[2] = target: T1, biotin-tagged DnaA (bio-DnaA) (Escherichia coli, UniProt P03004 1-467, biotin (biotin-tagged)); assay: pull-down; DiaA (10 pmol as monomer) with bio-DnaA (5 pmol) 5 min on ice, then purified His-YfdR for 10 min; streptavidin beads; SDS-PAGE, silver staining
T1 construct: DnaA, chromosomal replication initiator of Escherichia coli; also called bio-DnaA (Full); source: purified, as reported (Ishida et al., 2004)
T1 sequence (looked up): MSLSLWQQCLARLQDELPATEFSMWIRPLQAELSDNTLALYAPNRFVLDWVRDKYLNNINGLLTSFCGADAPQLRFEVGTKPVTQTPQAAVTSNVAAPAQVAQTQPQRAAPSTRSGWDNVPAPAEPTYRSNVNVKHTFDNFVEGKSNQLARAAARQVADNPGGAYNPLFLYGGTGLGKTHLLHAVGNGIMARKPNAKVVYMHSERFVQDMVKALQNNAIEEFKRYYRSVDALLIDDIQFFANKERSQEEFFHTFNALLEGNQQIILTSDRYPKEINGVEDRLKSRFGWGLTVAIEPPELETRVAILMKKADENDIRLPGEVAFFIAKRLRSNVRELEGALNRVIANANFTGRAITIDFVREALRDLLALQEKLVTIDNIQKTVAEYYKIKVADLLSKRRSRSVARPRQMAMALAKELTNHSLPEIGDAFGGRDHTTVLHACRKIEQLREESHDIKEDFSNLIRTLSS

[3] = target: T2, DnaB-DnaC complex (Escherichia coli, UniProt P0ACB0 1-471; P0AEF0 1-245); assay: pull-down; DnaA (7.5 pmol) and bio-oriC (100 fmol) with DnaB-DnaC complex (7.5 pmol each) 5 min on ice, then His-YfdR for 10 min; streptavidin beads; SDS-12% PAGE, silver staining
T2 construct: DnaB replicative helicase of Escherichia coli (homohexamer); DnaC helicase loader of Escherichia coli; Formed beforehand from 7.5 pmol DnaB (as monomer) and 7.5 pmol DnaC; also called DnaB-DnaC complexes; source: DnaB and DnaC co-incubated on ice; copies: 6 +
T2 sequence (P0ACB0 whole entry, chain 1 of 2): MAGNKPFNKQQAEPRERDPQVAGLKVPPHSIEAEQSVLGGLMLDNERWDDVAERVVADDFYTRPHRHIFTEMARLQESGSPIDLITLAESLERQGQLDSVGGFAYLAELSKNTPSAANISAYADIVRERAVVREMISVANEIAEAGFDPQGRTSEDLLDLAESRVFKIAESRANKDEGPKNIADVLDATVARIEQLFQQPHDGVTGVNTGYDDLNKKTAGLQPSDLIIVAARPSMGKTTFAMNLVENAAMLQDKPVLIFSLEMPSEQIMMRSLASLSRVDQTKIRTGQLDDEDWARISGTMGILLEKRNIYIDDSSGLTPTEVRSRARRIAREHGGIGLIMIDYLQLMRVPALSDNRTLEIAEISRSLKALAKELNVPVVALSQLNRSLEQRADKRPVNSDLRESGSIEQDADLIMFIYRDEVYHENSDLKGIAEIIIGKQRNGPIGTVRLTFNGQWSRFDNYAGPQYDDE
T2 sequence (P0AEF0 whole entry, chain 2 of 2): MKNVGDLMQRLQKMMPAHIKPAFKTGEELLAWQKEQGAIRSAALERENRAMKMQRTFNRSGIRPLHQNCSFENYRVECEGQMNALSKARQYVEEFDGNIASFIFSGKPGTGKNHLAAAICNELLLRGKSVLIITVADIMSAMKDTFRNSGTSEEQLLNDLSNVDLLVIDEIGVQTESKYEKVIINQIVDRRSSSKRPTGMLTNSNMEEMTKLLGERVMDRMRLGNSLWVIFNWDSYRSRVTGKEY

[4] = target: B2; assay: pull-down; DnaA (7.5 pmol) and bio-oriC (100 fmol) with His-DiaA (10 pmol as monomer) 5 min on ice, then His-YfdR for 10 min; streptavidin beads; SDS-15% PAGE, silver staining
[5] = target: T1, biotin-tagged DnaA (bio-DnaA); assay: pull-down; bio-DnaA (5 pmol) first incubated with purified DiaA (10 pmol), then with protein extracts of cells carrying pQRST or pBAD18; streptavidin beads; SDS-PAGE, silver staining

B1: His-tagged YfdR (His-YfdR) (natural protein, Escherichia coli, UniProt P76514 1-178, looked up)
chain: MSFIKTFSGKHFYYDKINKDDIVINDIAVSLSNICRFAGHLSHFYSVAQHAVLCSQLVPQEFAFEALMHDATEAYCQDIPAPLKRLLPDYKRMEEKIDAVIREKYGLPPVMSTPVKYADLIMLATERRDLGLDDGSFWPVLEGIPATEMFNVIPLAPGHAYGMFMERFNDLSELRKCA
notes: YfdR of the cryptic prophage CPS-53 of Escherichia coli; amplified from pSSP with a forward primer that begins at the ATG of yfdR (nogu10) and nogu11, cloned NheI-EcoRI into pBAD/HisB; also called purified YfdR; source: E. coli MC1061 carrying pYfdR (pBAD/HisB), arabinose-induced, purified (Ni-NTA agarose)
- binding result [1]: binds
- binding result [2]: binds

Binder: B2
- binding result [3]: binds

B3: DiaA (natural protein, Escherichia coli, UniProt P66817 1-196, looked up)
chain: MQERIKACFTESIQTQIAAAEALPDAISRAAMTLVQSLLNGNKILCCGNGTSAANAQHFAASMINRFETERPSLPAIALNTDNVVLTAIANDRLHDEVYAKQVRALGHAGDVLLAISTRGNSRDIVKAVEAAVTRDMTIVALTGYDGGELAGLLGPQDVEIRIPSHRSARIQEMHMLTVNCLCDLIDNTLFPHQDD
notes: results and legends say only DiaA; also called His-DiaA; purified DiaA; source: purified
- binding result [4]: binds
- binding result [5]: binds
